Experimental data as given in patent US7037703B2, “COD URACIL-DNA GLYCOSYLASE, GENE CODING THEREFORE, RECOMBINANT DNA CONTAINING SAID GENE OR OPERATIVE PARTS THEREOF, A METHOD FOR PREPARING SAID PROTEIN AND THE USE OF SAID PROTEIN OR SAID OPERATIVE PARTS THEREOF IN MONITORING OR CONTROLLING PCR” (Biotec Pharmacon ASA, priority 2000, dated 2006).
Like-named read-outs stand apart in the source and are kept apart here.

Columns and labels:
[1] = system: cUNG (Atlantic cod uracil-DNA glycosylase); assay: Product inhibition of cUNG with free uracil; type: biochemical, Atlantic cod (Gadus morhua)
Method: Different concentrations of uracil was added to the assay mixture and the assay performed as described in material and methods. Uracil-DNA glycosylase activity was measured in a final volume of 20 μl, containing 70 mM Tris/HCl, 10 mM NaCl, 1 mM EDTA, 100 μg/ml BSA and 230 ng nick-substrate or 71 ng PCR-substrate. The reaction mixture was incubated 10 min at 37° C., and terminated with the addition of 20 μl of ice cold single stranded calf thymus DNA (1 mg/ml) and 500 μl 10% (w/v) TCA. Samples were incubated on ice for 15 min, and centrifuged at 16,000 g for 10 min. Supernatants with acid soluble ^3H-uracil were analyzed using a liquid scintillation counter. Activity measurements using PCR-substrate were performed with 6.65×10^−4 U of purified cUNG. Various concentrations of uracil (0, 1, 2 and 5 mM) or Ugi-inhibitor (1.25×10^3 U to 2.00×10^2 U) were added to the assay mixtures (on ice). Activity was then measured as described under standard assay conditions.

[2] = cited from earlier work; for half-life: literature (45)
[3] = system: cUNG (Atlantic cod uracil-DNA glycosylase); assay: Inhibition of cUNG with uracil-DNA glycosylase inhibitor (Ugi); type: biochemical, Atlantic cod (Gadus morhua); details: 6.65×10^−4 U cUNG, 1.25×10^3 U to 2.00×10^2 U Ugi
Method: 6.65×10^−4 U of cUNG was incubated with 1.25×10^3 U to 2.00×10^2 U of Ugi using standard assay conditions, as described in material and methods. One Unit of Ugi inhibit one Unit of UNG-activity, where the UNG-activty is defined as releasing 60 pmol of uracil per min at 37° C.
Uracil-DNA glycosylase activity was measured in a final volume of 20 μl, containing 70 mM Tris/HCl, 10 mM NaCl, 1 mM EDTA, 100 μg/ml BSA and 230 ng nick-substrate or 71 ng PCR-substrate. The reaction mixture was incubated 10 min at 37° C., and terminated with the addition of 20 μl of ice cold single stranded calf thymus DNA (1 mg/ml) and 500 μl 10% (w/v) TCA. Samples were incubated on ice for 15 min, and centrifuged at 16,000 g for 10 min. Supernatants with acid soluble ^3H-uracil were analyzed using a liquid scintillation counter.
Activity measurements using PCR-substrate were performed with 6.65×10^−4 U of purified cUNG. Various concentrations of uracil (0, 1, 2 and 5 mM) or Ugi-inhibitor (1.25×10^3 U to 2.00×10^2 U) were added to the assay mixtures (on ice). Activity was then measured as described under standard assay conditions.
Target sequence in this assay (as listed by the source): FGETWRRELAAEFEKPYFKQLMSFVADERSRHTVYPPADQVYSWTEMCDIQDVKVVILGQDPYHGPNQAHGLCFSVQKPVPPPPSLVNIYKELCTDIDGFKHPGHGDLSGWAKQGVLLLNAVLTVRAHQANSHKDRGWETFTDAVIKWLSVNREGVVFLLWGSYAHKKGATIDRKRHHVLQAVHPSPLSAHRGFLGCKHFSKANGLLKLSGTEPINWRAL

[4] = Effect of temperature on stability (half-life of UNG activity); type: physicochemical
Method: Enzyme (1 U) were incubated at 50° C., 37° C., 25° C. and 4° C., and 5 μl aliquotes were transferred to the assay mixture after different time intervals, and standard assays were performed as described in material and methods. Half-lifes were determined to 0.5 min (50° C.), 20 min (37° C.), 60 min (25° C.) and 2 h (4° C.) for cUNG and 8 min (50° C.) 30 min (37° C.), 150 min (25° C.) and 2.6 h (4° C.) for rhUNG.
(§1) Assays were done in a volume of 20 μl as described in standard assay using the PCR generated substrate. The assay mixtures were as described in standard assay conditions and were adjusted to pH 8.0 for all temperatures. The temperature range used was 5° C. to 60° C. The activity was measured in a sequential manner with 15 min intervals, between each temperature. The enzymes used were diluted in standard dilution buffer (5 mM Tris/HCl, 10 mM NaCl, 1% (v/v) glycerol, pH 8.0) and placed on ice.
Temperature: UNG (0.01 U) was preincubated (in a total volume of 75 μl) in 10 mM Tris/HCl, 50 mM NaCl, 1 mM EDTA, 1% glycerol, pH 8.0 (adjusted at each temperature).

[5] = Effect of pH on stability (residual UNG activity); type: physicochemical
Method: In the different pH-buffer, 1 U of cUNG (Δ) or rhUNG (□) were incubated for 10 minutes at 37° C. Then 5 μl aliquotes were transfered to the assay mixture, and residual activity was measured using standard assay conditions as described in materials and methods. One hundred percent activity was measured directly from a sample diluted at pH 8.0 without any incubation step.
pH: UNG (0.01 U) was preincubated (in a total volume of 75 μl) for 10 min at 37° in buffers containing 10 mM buffer, 10 mM NaCl, 1 mM EDTA, 1% glycerol, with pH ranging from 9.5-6.5 with 0.5 pH unit intervals using diethanolamine/HCl (9.5-8.5), Tris/HCl (8.5-7.5), MOPS/NaOH (7.5-6.5) and MES/NaOH (6.5-5.5) as buffer components. Aliquots of 5 μl were transferred to the assay mixtures and residual activity was measured using standard assay conditions.

[6] = system: PCR generated uracil-containing DNA substrate; assay: Determination of temperature optimum / temperature profile; type: biochemical
Method: Due to prolonged incubation of the enzyme sample on ice during the experiment, activity is corrected with respect to the stability of the enzyme, as described in material and methods.
Enzyme activity was measured as described in material and methods. The percent UNG activity is set relative to the highest value for cUNG (45° C.) and rhUNG (50° C.) respectively. Due to prolonged incubation of the enzyme samples on ice during the experiment, activity is corrected with respect to the stability of the enzymes, as described in material and methods.
as §1

[7] = system: PCR generated uracil-containing DNA substrate; details: literature value (64); cited from earlier work

O=c1cc[nH]c(=O)[nH]1 [uracil]
inhibition of cUNG activity ([1]; 1 mM uracil in the assay mixture): more than 50%
inhibition of cUNG activity ([1]; 5 mM free uracil in the assay mixture): 78%

B1: E. coli UNG: commercially available UNG (or UDG) from Escherichia coli used in carry-over prevention (protein, UniProt P12295 2-229, looked up)
Uracil-DNA glycosylase: ANELTWHDVLAEEKQQPYFLNTLQTVASERQSGVTIYPPQKDVFNAFRFTELGDVKVVILGQDPYHGPGQAHGLAFSVRPGIAIPPSLLNMYKELENTIPGFTRPNHGYLESWARQGVLLLNTVLTVRAGQAHSHASLGWETFTDKVISLINQHREGVVFLLWGSHAQKKGAIIDKQRHHVLKAPHPSPLSAHRGFFGCNHFVLANQWLEQRGETPIDWMPVLPAESE
half-life ([2]; 40° C.): 27 min
half-life ([2]; 45° C.): 8 min
inactivation by heat treatment / reactivation ([2]; literature (60), (45)): not completely inactivated

B2: Ugi: Bacillus subtilis bacteriophage PBS2 UDG-inhibitor, obtained from New England Biolabs (protein)
chain: MTNLSDIIEKETGKQLVIQESILMLPEEVEEVIGNKPESDILVHTAYDESTDENVMLLTSDAPEYKPWALVIQDSNGENKIKML
effect of Ugi on cUNG activity [3]: clearly inhibited

B3: rhUNG: purified recombinant mesophilic human UNG (UNGΔ84) provided by Dr. Krokan (protein, UniProt P13051 85-304, looked up, fragment)
chain: LAARNVPVGFGESWKKHLSGEFGKPYFIKLMGFVAEERKHYTVYPPPHQVFTWTQMCDIKDVKVVILGQDPYHGPNQAHGLCFSVQRPVPPPPSLENIYKELSTDIEDFVHPGHGDLSGWAKQGVLLLNAVLTVRAHQANSHKERGWEQFTDAVVSWLNQNSNGLVFLLWGSYAQKKGSAIDRKRHHVLQTAHPSPLSVYRGFFGCRHFSKTNELLQKSG
half-life ([4]; 4° C., pH 8.0): 156 min
half-life ([4]; 25° C., pH 8.0): 150 min
half-life ([4]; 37° C., pH 8.0): 30 min
half-life ([4]; 50° C., pH 8.0): 8 min
half-life ([4]; enzyme in standard dilution buffer on ice): 156 min
residual activity ([5]; pH 10.0, 10 min at 37° C.): 66%
pH range in which most stable ([5]; preincubated 10 min at 37° C.): 7.0-9.5
temperature of highest activity value in temperature profile ([6]; FIG. 6, 5-60° C.): 50 °C
relative activity compared with cUNG ([6]; temperatures higher than 45° C.): higher relative activity
temperature optimum [7]: 45 °C
